Measured values reported in patent US20110008350A1 (published 2011).

B1: dTag PSH1 (double-tagged human Presenilin homolog 1) (other, UniProt Q8TCT6 1-384, looked up, not shown: small tags and cut ends)
chain: MAEQTYSWAYSLVDSSQVSTFLISILLIVYGSFRSLNMDFENQDKEKDSNSSSGSFNGNSTNNSIQTIDSTQALFLPIGASVSLLVMFFFFDSVQVVFTICTAVLATIAFAFLLLPMCQYLTRPCSPQNKISFGCCGRFTAAELLSFSLSVMLVLIWVLTGHWLLMDALAMGLCVAMIAFVRLPSLKVSCLLLSGLLIYDVFWVFFSAYIFNSNVMVKVATQPADNPLDVLSRKLHLGPNVGRDVPRLSLPGKLVFPSSTGSHFSMLGIGDIVMPGLLLCFVLRYDNYKKQASGDSCGAPGPANISGRMQKVSYFHCTLIGYFVGLLTATVASRIHRAAQPALLYLVPFTLLPLLTMAYLKGDLRRMWSEPFHSKSSSSRFLEV
notes: Control bait, stably expressed in PS dKO MEF cells; also called dTag SPPL3; SPP-like protease 3

Assays:
[1] = target: T1, Integrin alpha-3 (mouse, UniProt Q62470 33-1053, limits assumed); test: TAP-tag purification from MEF membranes, LC-MS/MS
T1 construct: also called Itga3; α3β1 integrin (alpha chain)
T1 sequence (looked up): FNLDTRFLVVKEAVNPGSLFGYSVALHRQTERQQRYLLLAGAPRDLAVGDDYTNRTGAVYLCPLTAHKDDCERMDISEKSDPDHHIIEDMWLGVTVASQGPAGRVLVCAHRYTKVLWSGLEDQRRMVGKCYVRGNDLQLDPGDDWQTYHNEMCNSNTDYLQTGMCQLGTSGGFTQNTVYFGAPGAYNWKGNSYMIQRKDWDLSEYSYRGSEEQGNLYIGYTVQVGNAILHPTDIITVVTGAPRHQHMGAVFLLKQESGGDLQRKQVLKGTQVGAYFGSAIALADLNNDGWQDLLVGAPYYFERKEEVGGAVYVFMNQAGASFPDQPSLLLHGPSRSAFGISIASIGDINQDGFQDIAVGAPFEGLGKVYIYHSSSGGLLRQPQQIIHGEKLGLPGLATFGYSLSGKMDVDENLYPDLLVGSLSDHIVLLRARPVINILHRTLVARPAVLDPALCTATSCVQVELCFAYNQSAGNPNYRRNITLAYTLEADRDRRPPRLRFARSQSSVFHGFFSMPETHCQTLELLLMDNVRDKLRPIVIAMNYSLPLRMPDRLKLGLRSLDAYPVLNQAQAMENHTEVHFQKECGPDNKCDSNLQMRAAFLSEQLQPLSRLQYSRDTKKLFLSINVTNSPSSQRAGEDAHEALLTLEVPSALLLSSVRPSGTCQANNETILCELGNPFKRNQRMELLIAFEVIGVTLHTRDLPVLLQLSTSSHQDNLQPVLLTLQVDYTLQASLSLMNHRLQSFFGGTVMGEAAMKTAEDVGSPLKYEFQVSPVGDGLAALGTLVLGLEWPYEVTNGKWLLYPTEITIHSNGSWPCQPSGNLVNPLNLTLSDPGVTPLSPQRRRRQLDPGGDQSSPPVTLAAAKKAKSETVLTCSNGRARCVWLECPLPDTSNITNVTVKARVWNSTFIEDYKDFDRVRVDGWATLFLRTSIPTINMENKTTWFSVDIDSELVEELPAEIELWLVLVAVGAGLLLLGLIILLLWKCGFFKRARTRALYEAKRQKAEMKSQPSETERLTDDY
Protocol: (§1) Harvested MEF cells were re-suspended in STE buffer (5 mM Tris-HCl pH 7.4, 250 mM sucrose, 1 mM EGTA) supplemented with the Complete protease inhibitors. The cells were lysed by being passed ten times through a ball-bearing cell cracker followed by removal of the nuclei and cell debris by centrifugation at 800×g for ten minutes at 4° C. The supernatant was further centrifuged at 100,000×g for 60 minutes at 4° C. The microsomal membrane pellet was re-suspended in the solubilization buffer (HEPES buffer; 50 mM HEPES pH 7.2, 150 mM NaCl with 1% 3-[(3-Cholamidopropyl)dimethylammonio]-2-hydroxy-1-propanesulfonate (CHAPSO, Calbiochem) or 0.5% 3-[(3-Cholamidopropyl) dimethylammonio]-1-propanesulfonate (CHAPS, Calbiochem)) supplemented with the Complete protease inhibitors and was solubilized at 4° C. for three hours. After centrifugation at 100,000×g for 60 minutes at 4° C., the supernatant was saved and protein concentration was determined. The solubilized membranes were applied on pre-equilibrated anti-FLAG M2 affinity gel (Sigma). The gel was washed with the solubilization buffer and bound proteins were eluted with solubilization buffer with 20 μg/ml of FLAG peptides (Sigma). […] After washing, the bound proteins were eluted with 5 mM EGTA.

[2] = target: T2, PGRL/EWI-2 (endogenous, MEF cells) (mouse, UniProt Q8R366 26-611); test: TAP-tag purification from MEF membranes, LC-MS/MS
T2 construct: also called Igsf8
T2 sequence (looked up): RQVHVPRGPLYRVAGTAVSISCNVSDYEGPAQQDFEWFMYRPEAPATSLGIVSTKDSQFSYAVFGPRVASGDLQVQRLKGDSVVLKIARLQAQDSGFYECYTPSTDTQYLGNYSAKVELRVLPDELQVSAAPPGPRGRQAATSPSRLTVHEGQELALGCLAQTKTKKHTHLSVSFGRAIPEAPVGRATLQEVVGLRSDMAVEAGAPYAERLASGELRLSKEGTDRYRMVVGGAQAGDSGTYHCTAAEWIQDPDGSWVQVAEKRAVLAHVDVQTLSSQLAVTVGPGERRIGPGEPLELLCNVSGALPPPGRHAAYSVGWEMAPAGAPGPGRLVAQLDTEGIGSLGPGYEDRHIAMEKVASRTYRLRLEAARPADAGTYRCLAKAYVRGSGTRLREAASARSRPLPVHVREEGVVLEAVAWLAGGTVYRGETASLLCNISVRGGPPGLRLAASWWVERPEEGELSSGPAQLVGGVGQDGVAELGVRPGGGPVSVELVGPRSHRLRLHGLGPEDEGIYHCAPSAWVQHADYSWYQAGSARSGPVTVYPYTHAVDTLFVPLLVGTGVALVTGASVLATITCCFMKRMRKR
Protocol: as §1

[3] = target: T3, Integrin beta-1 (mouse, UniProt P09055 21-798); test: TAP-tag purification from MEF membranes, LC-MS/MS
T3 construct: also called Itgb1; α3β1 integrin (beta chain)
Protocol: as §1

[4] = target: T4, Nicastrin (endogenous, MEF cells) (mouse, UniProt P57716 28-708); test: TAP-tag purification from MEF membranes, Western blot
T4 construct: also called NCT
Protocol: Insoluble fractions were removed by centrifugation at 15,000×g for 15 minutes at 4° C. Protein concentration was determined by the Bradford dye-binding procedure (Bio-Rad). […] Membranes were blocked with 5% skim milk in TBS and probed with antibodies followed by incubation with horseradish peroxidase conjugated antibodies (Bio-Rad). Bands were detected with Renaissance (ParkinElmer).
Harvested MEF cells were re-suspended in STE buffer (5 mM Tris-HCl pH 7.4, 250 mM sucrose, 1 mM EGTA) supplemented with the Complete protease inhibitors. The cells were lysed by being passed ten times through a ball-bearing cell cracker followed by removal of the nuclei and cell debris by centrifugation at 800×g for ten minutes at 4° C. The supernatant was further centrifuged at 100,000×g for 60 minutes at 4° C. The microsomal membrane pellet was re-suspended in the solubilization buffer (HEPES buffer; 50 mM HEPES pH 7.2, 150 mM NaCl with 1% 3-[(3-Cholamidopropyl)dimethylammonio]-2-hydroxy-1-propanesulfonate (CHAPSO, Calbiochem) or 0.5% 3-[(3-Cholamidopropyl) dimethylammonio]-1-propanesulfonate (CHAPS, Calbiochem)) supplemented with the Complete protease inhibitors and was solubilized at 4° C. for three hours. After centrifugation at 100,000×g for 60 minutes at 4° C., the supernatant was saved and protein concentration was determined. […]

[5] = target: B1; test: TAP-tag purification from MEF membranes, LC-MS/MS
Protocol: as §1

| Binder | binding result [1] | binding result [2] | binding result [3] | binding result [4] | binding result [5] |
| --- | --- | --- | --- | --- | --- |
| B1 | no binding | no binding | no binding | no binding |  |
| CD81/TAPA-1 (endogenous, MEF cells) (other, mouse, UniProt P35762 1-236, looked up) MGVEGCTKCIKYLLFVFNFVFWLAGGVILGVALWLRHDPQTTSLLYLELGNKPAPNTFYVGIYILIAVGAVMMFVGFLGCYGAIQESQCLLGTFFTCLVILFACEVAAGIWGFVNKDQIAKDVKQFYDQALQQAVMDDDANNAKAVVKTFHETLNCCGSNALTTLTTTILRNSLCPSGGNILTPLLQQDCHQKIDELFSGKLYLIGIAAIVVAVIMIFEMILSMVLCCGIRNSSVY |  |  |  |  | no binding |
